Experimental data: article doi:10.1101/2023.12.02.569699 (bioRxiv, 2023)
Where a chain is given by its changes, count along the chain named. In names and notes the source's numbering stands.

T1: RING1B (H. sapiens, UniProt Q99496 1-336)
T1 sequence: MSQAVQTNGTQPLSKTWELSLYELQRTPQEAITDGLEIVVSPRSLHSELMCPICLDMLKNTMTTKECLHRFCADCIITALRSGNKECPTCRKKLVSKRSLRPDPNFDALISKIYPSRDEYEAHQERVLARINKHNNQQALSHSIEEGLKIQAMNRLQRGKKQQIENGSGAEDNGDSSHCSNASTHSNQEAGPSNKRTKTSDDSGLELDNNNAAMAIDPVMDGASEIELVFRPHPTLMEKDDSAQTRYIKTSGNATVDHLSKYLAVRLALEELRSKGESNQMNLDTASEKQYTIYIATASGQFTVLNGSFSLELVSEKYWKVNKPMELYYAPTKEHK

B1: CBX7 (natural protein)
chain: MELSAIGEQVFAVESIRKKRVRKGKVEYLVKWKGWPPKYSTWEPEEHILDPRLVMAYEEKEERDRASGYRKRGPKPRRLLLQESAAPDVVQTPGDWEPMEQAPEEEAEADLTNGPPPWTPTLPSSEVTVTDITANSVTVTFREAQAAEGFFRDRNEKL
B2: CBX7(F11A) (natural protein)
chain: B1 chain with F11A
B3: MBP-tagged BMI1 (natural protein)
chain: MHRTTRIKITELNPHLMCVLCGGYFIDATTIIECLHSFCKTCIVRYLETSKYCPICDVQVHKTRPLLNIRSDKTLQDIVYKLVPGLFKNEMKRRRDFYAAHPSADAANGSNEDRGEVADEDKRIITDDEIISLSIEFFDQNRLDRKVNKDKEKSKEEVNDKRYLRCPAAMTVMHLRKFLRSKMDIPNTFQIDVMYEEEPLKDYYTLMDIAYIYTWRRNGPLPLKYRVRPTCKRMKISHQRDGLTNAGELESDSGSDKANSPAGGIPSTSSCLPSPSTPVQSPHPQFPHISSTMNGTSNSPSGNHQSSFANRPRKSSVNGSSATSSG

These binders were tested against T1, RING1B (assay: SEC).

Q: Does B1 bind?
A: binds

Q: Does B2 bind?
A: binds

Q: Does B3 bind?
A: binds
